Reference: patent US20200024360A1 (Janssen / Centocor, published 2020)

Legend:
[1] = biological target: T1, Cynomolgous monkey PSMA, full length (Macaca fascicularis, UniProt Q04609 1-750 (human entry)); assay: flow cytometry, mammalian Fab supernatant titrated on cyno PSMA (PSMG5) HEK cells, anti-human kappa-RPE
T1 construct: On transfected HEK293F cells; also called cyno PSMA; EHH56646.1
T1 chain: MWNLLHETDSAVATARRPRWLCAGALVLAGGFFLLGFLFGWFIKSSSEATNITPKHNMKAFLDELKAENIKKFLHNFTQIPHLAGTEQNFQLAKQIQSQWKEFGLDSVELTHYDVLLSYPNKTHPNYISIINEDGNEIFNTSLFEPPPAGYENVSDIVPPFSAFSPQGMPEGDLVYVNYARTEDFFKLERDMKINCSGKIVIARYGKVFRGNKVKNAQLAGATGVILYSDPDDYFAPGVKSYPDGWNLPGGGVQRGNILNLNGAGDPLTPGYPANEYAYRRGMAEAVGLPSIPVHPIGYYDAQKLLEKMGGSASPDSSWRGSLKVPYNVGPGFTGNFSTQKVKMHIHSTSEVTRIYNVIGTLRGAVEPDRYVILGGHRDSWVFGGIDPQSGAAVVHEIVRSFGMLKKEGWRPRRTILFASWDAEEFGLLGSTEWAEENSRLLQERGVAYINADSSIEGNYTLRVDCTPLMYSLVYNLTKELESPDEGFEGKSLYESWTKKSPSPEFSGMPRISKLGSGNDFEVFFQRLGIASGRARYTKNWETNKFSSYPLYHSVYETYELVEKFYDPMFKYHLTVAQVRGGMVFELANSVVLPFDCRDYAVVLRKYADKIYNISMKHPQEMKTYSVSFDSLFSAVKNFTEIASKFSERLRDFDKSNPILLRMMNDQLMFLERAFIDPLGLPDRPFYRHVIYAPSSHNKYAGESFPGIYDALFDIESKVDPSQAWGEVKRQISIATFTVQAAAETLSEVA
Procedure: Plates were read on a BD FACS Array flow cytometer. FACS data was analyzed in FlowJo software by live gating the healthy population of cells using forward scatter and side scatter, and then analyzing the cells within this gate for PE staining. Mean fluorescence intensity (MFI) was calculated and exported into Microsoft Excel. […] Fabs were sequenced and moved forward for cloning into mammalian expression vector for rescreening. True positives were selected from the binding of mammalian cell expressed Fab supernatants to PSMA-expressing cell lines.
Binding profiles among hits were compared across cell lines expressing different species of PSMA.

[2] = biological target: T2, cynomolgus CD3ε on primary cynomolgus CD4+ T cells (cynomolgus monkey, UniProt Q95LI5 22-198); assay: FACS, primary cynomolgus CD4+ T cells
T2 construct: whole, on cells
T2 sequence (Q95LI5 22-198): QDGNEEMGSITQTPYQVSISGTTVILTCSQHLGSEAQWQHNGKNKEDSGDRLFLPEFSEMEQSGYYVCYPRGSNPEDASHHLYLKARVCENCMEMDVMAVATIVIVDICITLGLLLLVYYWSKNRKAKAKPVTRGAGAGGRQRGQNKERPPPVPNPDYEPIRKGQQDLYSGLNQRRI

| Binder | EC50 (read off the curve) [1] [µg/mL] | binding result [2] |
| --- | --- | --- |
| PSMB49 (Fab, V domains shown, Fab; also called PSMM50; Fab of mAb PSMB121) VH: QVQLVQSGAEVKKPGSSVKVSCKASGGTFSSYAISWVRQAPGQGLEWMGGIIPIFGTANYAQKFQGRVTITADESTSTAYMELSSLRSEDTAVYYCARASRVWHASYGYLDYWGQGTLVTVSS VL: EIVLTQSPATLSLSPGERATLSCRASQSVSKWLAWYQQKPGQAPRLLIYDASNRATGIPARFSGSGSGTDFTLTISSLEPEDFAVYYCQQRFTAPWTFGQGTKVEIK | ~0.2 | – |
| G11 (antibody, human IgG1, kappa, V domains shown, In-house phage-derived anti-CD3 control; also called GI) VH: EVQLLESGGGLVQPGGSLRLSCAASGFTFSSYGMSWVRQAPGKGLEWVSGINGGGGSKYYADSVKGRFTISRDNSKNTLYLQMNSLRAEDTAVYYCAKTSAQRFDYWGQGTLVTVSS VL: DIQMTQSPSSLSASVGDRVTITCRASQSISSYLNWYQQKPGAPKLLIYAASSLQSGVPSRFSGSGSGTDFTLTISSLQPEDFATYYCQQSYSLPLTFGQGTKVEIKR | – | no binding |
